Measurements taken from the DeepSol protein solubility set.

Assay: soluble on expression in E. coli; label from the status in PepcDB or PDB records

Sequence | soluble on expression in E. coli
MSLSPKVAWWCRHPLTFLMEAADDLCYSIVDLEDGFHMGYLPFAAVQDKLQSIADIDLNQYEGSPAETIKRLRAKAINRLVKEVAQLFLDHEPDILAGKFDQSLVELSRFSPQLKEIETMTTNAVFHHPNVVRIKIAGFEVLGDLLTDFLTSVLEKQPRPKGKLLKFMLPPEHQIAPDEDNYSKILKVTDYIAGMTDLQATLLYQQLRGEGHHHHHH | soluble
MSLSQPSFGLSNTATQGTLGQQSLVQPQNQQPQLAAQQLQSQQLSRYPQLIQEQILKCKESWDSNSYKTSLRSFVYNKVNETDAILYTKPTNVSQEEWDKAIENKPSSDLIPIQVFGFEGLNNRNQIQVENVAQARVILNQILDKTKQLQQSHSFETSARIMKVQARNAQIEKRILKLGTQLAILKNRRLPLTISEEKMWGQFQELLKSSNDPAGLGKTNELWARLAVLRERAKTISEQLDSKLVIIGEGHHHHHH | soluble
MSLSRQIRYYGTGTEKVEEELQDLLPDANIIRMDNDTTRKKGAHAKLLAQFGSGEADILIGTQMIAKGLDFPNVTLVGVLNADTALGLPDFRASERTFQLLTQVSGRAGRAEKSGHVYIQTFNPDHYAIRFAQHHDYEGFFKYEMQMRHRGGYPPYYFTVQITASDLDEGVAAKRMYQLLQWLRPRLAPSTILLGPTPKPIARVNRRYYYQIVIKYKQEPNLAQTLTTLLHETQAQQRQGLQIGIDVEPLHFMEGHHHHHH | not soluble
MSLSRQIRYYGTGTQKAYDELKQVLPEARILRMDVDTTKRKGAHEKILTKFGRHEADILLGTQMIAKGLDFPNVTLVGVLNADTSLNLPDFRSSERTFQLLTQVAGRAGRANKPGEVLIQTYNPNHYAIQLAREQDYEAFYRYEMRIRKALSYPPYYFTVGLTLSHKDEQEVIKKSYEIVTLIKEGLTDKIKILGPTPKPVARTHNLYHYQIIIKYRFEDQLEIVLNHILDLTQAKENKKLRLIIDHEPQSEGHHHHHH | not soluble
MSLSSVKDFPKIKAIRSFIIGGVGSGGDYHNVKGGHWLIDSDISTPASKWEQYKKSRTSWGINVLGSFLVEIEATDGTVGFATGFGGPPACWLVHQHFERFLIGADPRNTNLLFEQMYRASMFYGRKGLPIAVISVIDLALWDLLGKVRNEPVYRLIGGATKERLDFYCTGPEPTAAKAMGFWGGKVPLPFCPDDGHEGLRKNVEFLRKHREAVGPDFPIMVDCYMSLNVSYTIELVKACLDLNINWWEECLSPDDTDGFALIKRAHPTVKFTTGEHEYSRYGFRKLVEGRNLDIIQPDVMWLGGLTELLKVAALAAAYDVPVVPHASGPYSYHFQISQPNTPFQEYLANSPDGKSVLPVFGDLFIDEPIPTKGYLTTADLDKPGFGLTINPAARAKLIPSDYLFKVPEIPQNLSTGKEIKSNEQPDKPNGTLDSLAAKVESLTTSTSSEGHHHHHH | soluble
MSLSTKDVKELAIEQAKKFGGKLEVCPKVPIETKADLGIAYTPGVAAVSSAIHEKKERAYELTTKKNTVAVISDGSAVLGLGNIGPEAAMPVMEGKAALFKRFAGVDSIPLVLDTQDTEEIIQTVKFLAPTFGGINLEDISAPRCFEIEQRLIDELDIPVFHDDQHGTAIVVLAALYNSLKLINKKIEDIHVVINGGGSAGLSITRKFLAAGVKHIIIVDRAGILSETDTALPPHHAEIAKLTNREHRTGDLATALEGADVFVGVSAPGVLKPEWIQQMNEQPVIFAMANPVPEIFPDEALAAGAYIVGTGRSDFPNQINNVLAFPGIFRGALDARAKKITIEMQIAAAKGIAKLIPDNELTPTNIIPDPFQEGVAKVVAESVRNAVKETNEGHHHHHH | soluble
MSLSTSSKVVRLDVSRSQQEAVKGVKLPALLIKLRDRCGEHNRKLLDRLFEQVDDSFFDLADKSATNSEQALFFDAMREIRLKKERIAALFMQYYNRDFQFLEVQKPGMLKANFDPQNLTLVQEDKLEEQVAIDNMVNRFKSEIGRDLEHLTIRLDSLLFDVSVEEENNPLGPLRMVTNFVTACAELELGIRAKLVFFKLFEKHVLTQNKAVLEAANKFLAEQGVMPDLSASRSVRRTGVNLPHASGSVIDQNTGAVGDYNEGGWDPQIDPLQYMRQFSDAQMAGAAGAAVNLPVVQQTALLNLLSRLQTTNKAPATALSDNGLINFMGLMERAVLSKEGQPRASVGRLDQDVMNLVTMLFEFILDDRQLPAAIRAVIARLQIPILKVALLDRTFFNQGGHSARRLLNEMATASIGWTEKAPGEPDAFLAKLEEVVQRLVTEFDNDITIFDEVLEDFIRFRESDKKRRHLLEQRTRDAEVGRAKSDAAKKVVQDVLNDMLAGKNIPALVMEVLKEGWSNYMVLLQLKSGREHPDWLQAQSVAARLIQGCDPDDTSGEAPEVAAVEKLMEELRVGLQQTAYKPFELDKTLRQLQKVLSETTQQRLAKEVTLDDEGHHHHHH | soluble
MSLSVIDLLKQRVQSAGKKPVIIFPEG | not soluble
MSLSVLNGYQLIISDVDGVIVREGDPIWENIQALRNIQNNGVKIIFVTNNSGFSRILLSRQLSYLGLKVTPDMIITSGLAAAIYMKEKLNVKSVFAVGEEGLIEELKNHGFLVFSSAESERILPDAVVMGLDRLSTYDKLSLAMRCISKGSKFIVTNMDRLWPAKDGLKLGAGALASSIIYALRRDPDFIAGKPNTWIVEIAMRISNVKKLDKILVIGDQIETDIQMGYNIGADTALVLTGISNVDDVDRSNVKPKYVVNTLLDLLEGHHHHHH | soluble
MSLSWRNRIQIFLAPDRVDLTGIARGIRPVQQFRQSGVCVQENDSRQQWKAPLRLLEQMIGQMDDRFRRGSELHITLSNHFVRYGVIAPQPSLANPDELMAYAGFQMREIYGERIDDWELSLSTWDPYGGALCAAIARDLQSELIMFARQYDTRFACIEPYLAAALDHWSKRLVEKQVWFVLVETGRFCLVVLSEGAWRCARNQRVVENLQEELLAALEQESIILSPDRSVERVYVFAPELTGQLPVHDLRWQFVRLPDEKHPAPSYFPGVTGMDDSQNH | not soluble
MSLTAAGRWRDVEMMAYKQDDAAPFRDVTRQLLFSDPRLACEWRYFEVAAGGYSTLEKHDHVHGVMIHRGKGQCLVGHHVSDVAVGDLVFIPPQTWHQFRANAGDVLGFLCLVNAERDREGHHHHHH | not soluble
MSLTADPPACTVPAAGGSSTHKLVNGGADKLIFKIKSSNNNEYRIVPVFGFVDPSGSKDVVITRTAGAPKEDKLVVHFAPAPADATDAQAAFAAVTPAGTVTIPMSATA | not soluble
MSLTAENILNRNFEANKPNQKWFTDISYLNYGKGQKAYISAIIDRYDLSIIVYKVSKRNDLKLVMDILKLALQNNDASNTILHSDRGFQYTSKHYKNYLDTHNVKISMSKAGSCLDNQPIEAFWGTLKSEYYYRNQFSTYEDLETGISEYINYYMNKRYVPKFDGLTPNEYRNVSEGHHHHHH | not soluble
MSLTANREAIDMARVAAGAAAAKLADDVVVIDVSGQLVITDCFVIASGSNERQVNAIVDEVEEKMRQAGYRPARREGAREGRWTLLDYRDIVVHIQHQDDRNFYALDRLWGDCPVVPVDLSANSAGAQEGHHHHHH | soluble
MSLTASQQPTASQDPTRIDALVIGAGFGGMYAVHKLSGMGLSVQGFEAGGDVGGVWYWNRYPGARCDLMSLDYCYSFSPDIEQEWTWSEQFAAQSEILAYANFVADRLDLRRHFLFETWVTGAAYDEAANVWRVTVDDGRVFEATYCVMASGPLSIPKGVPFDGADDFKGEILLAAKWPHTPVSFEGKRVGLVGTGSTGIQIVPEVAKTAGALTVFQRTPSFTLPMRNVTLEPDYVAELKRNYAGIRQVARNSPLGGVRPQSTRPFFSVTPEQRRALMEDSWARGGLSFLGTFSDLLVNPEANEQVAEFVRSKISEVVTDPVTAEKLKPRGYPIFARRPCLDTHYYETFNLPHVKLHDCLESPIVKITPAGLLTETGEVELDVLIFATGYDGLTGALLNFDVVGRGGLQLRDKWRDGAKSHLGLMIASFPNLFLVCGPNGPAALANIITLDQQNIDWIADAITHMRQEGLATIEPTEGAEQGWMDMVYGMAELTLVSKANTWYVGGNISGKPRGLSMYTGGFQRYSEACRLAAEKGYEDFVFEKAATKQGARSEGHHHHHH | soluble
MSLTDIHPPLLLIDTSTRVCSVAVAAAGTIISQRVSHVGNSHAANIGVFVQEVLTEAIGLGVKPSIVALSSGPGSYTGLRIGSSIAKGICFGLGIPLVSVPTLELIAEAARPLSQPDWLICPMIDARRMEVYTALFDSKGKALTDTLPLVIDNDSFSEELKKRNILFVGDGAEKCRPFLSHPNAHFSKNVIYPLALYMLHPALSRIETSSYEDVAYWEPFYLKEFVATVAKNKVIPRTQTTEGHHHHHH | not soluble
MSLTDLFAREPYAPLAERLRPHTLDDVVGQEHLIGEGKPLRVAVEGGKPHSMLLWGPPGVGKTTLARILAQSFNAQFLPVSAVFSGVKDIREAIDKAEIALQQGRATILFVDEVHRFNKAQQDAFLPHVESGLLTFIGATTENPSFEVNPALLSRAQVYVLQPLSSDDLKKLIAKVLALPEYQEFTIETDAQKLLVNTVDGDARRLLNLLEQLLRAADTRRLKNLTAEFLADSLGAQIRRFDKGGESFYNQISALHKSVRGSHPNAALYWFCRMLDGGTDPRYLARRIVRIAWEDIGLADPRALQIANDAAATFERLGSPEGELALAQAVLYLAAAAKSNAGYKAYNQMRHFVKENASDEVPVHLRNAPTKLMKELGYGREYRYAHDEPNAYAAGESYMPDGLDEPDFYQPVPRGLEIKIGEKLAWLKSLDEEVLKAEGHHHHHH | soluble
MSLTEEFVNKEDALKNYNAKEFRTPDGYTSDMILTTVKELNGKPTLHILLIKRSLTNAEGKPNMEGGKWAVPGGFVDENESAEQAAERELEEETSLTDIPLIPFGVFDKPGRDPRGWIISRAFYAIVPPEALEKRAAGDDAAEIGLFPMTEALELPLAFDHLDMLKKAFSAITEEFLLTTAIRDFLPETFSAELLYQTLEGCTKPGILPDEVEFMENIEYLPYLEKVGDLYRFNADAEAGSIYFEGHHHHHH | soluble
MSLTEFLERNAALYGSEKCLTEINLDLQESHNVIWREYELIENNPAGEYRRDMTWKVFDEKANRFANLLIKRGIKKGDKVAILLMNCLEWLPIYFGILKAGAVAVPLNFRYTAEEIKYCLELSDSIALVFGPEFIGRIENIYDQIIPKIKLLLFAGENRPSFAESYDRLTANCPSEAPKVEITDDDDAAIYFSSGTTGFPKAILHAHRSLVSACYTEQKHHGQTREDNFLCIPPLYHTGAKMHWFGSLLSGSKAVLLRGIKPEWILRTVSEEKITIVWLLVPWAQDILDAIERGDVKLEDYDLSQWRLMHIGAQPVPPSLIRRWKKYFPHHLYDTNYGLSESAGPGCVHLGVENIHKVGAIGLPGYNWEAKIVDENGCPVKQGEVGELAVKGPGVMKCYYKDPEATAAVLKDGWLLTGDMARMDEDGFIYLVDRKKDVIISGGENIYPVQIEDFLRSHEAIKDAAVIGLPDKRLGEIAAAIIELKPGFECTEEEINKFCLVLPRYKRPRKIIFDKVPRNPTGKIEKPRLREKYGVVALVEAETEGHHHHHH | soluble
MSLTEILIVEDDDIIATLIERFLLQREYVVCAKVATGEDALYKAAEHLPDLVLMDINLAGKIDGITATKFITAIFHIPVIFLSGQDDETTLERATMAEPASFIIKPFNAKDLYSNIEIALHNDREGHHHHHH | not soluble
MSLTEKKCTVMLSKFKRNKHQQHLAQLPKISQSVDDVDFFYAPADFRETLLEKIASAKQRICIVALYLEQDDGGKGILNALYEAKRQRPELDVRVLVDWHRAQRGRIGAAASNTNADWYCRMAQENPGVDVPVYGVPINTREALGVLHFKGFIIDDSVLYSGASLNDVYLHQHDKYRYDRYHLIRNRKMSDIMFEWVTQNIMNGRGVNRLDDVNRPKSPEIKNDIRLFRQELRDAAYHFQGDADNDQLSVTPLVGLGKSSLLNKTIFHLMPCAEQKLTICTPYFNLPAILVRNIIQLLREGKKVEIIVGDKTANDFYIPEDEPFKIIGALPYLYEINLRRFLSRLQYYVNTDQLVVRLWKDDDNTYHLKGMWVDDKWMLITGNNLNPRAWRLDLENAILIHDPQLELAPQREKELELIREHTTIVKHYRDLQSIADYPVKVRKLIRRLRRIRIDRLISRILEGHHHHHH | not soluble
